Experimental findings from PMC8430995 are described below.

Substitutions are numbered along the chain they refer to. Names may count otherwise.

This experiment has as its target Akt WT (transfected), P31749. Nature of the experiment: co-immunoprecipitation (K8/K18 IP, Akt immunoblot, quantified). The conditions noted are these: chain shown with the change, BHK-21 cells transfected with Akt WT, parent: est. 1.0, read off a plot. In general terms: A western blot detects proteins with antibodies after separation by electrophoresis.

Akt WT (transfected), P31749, sequence (P31749 whole entry): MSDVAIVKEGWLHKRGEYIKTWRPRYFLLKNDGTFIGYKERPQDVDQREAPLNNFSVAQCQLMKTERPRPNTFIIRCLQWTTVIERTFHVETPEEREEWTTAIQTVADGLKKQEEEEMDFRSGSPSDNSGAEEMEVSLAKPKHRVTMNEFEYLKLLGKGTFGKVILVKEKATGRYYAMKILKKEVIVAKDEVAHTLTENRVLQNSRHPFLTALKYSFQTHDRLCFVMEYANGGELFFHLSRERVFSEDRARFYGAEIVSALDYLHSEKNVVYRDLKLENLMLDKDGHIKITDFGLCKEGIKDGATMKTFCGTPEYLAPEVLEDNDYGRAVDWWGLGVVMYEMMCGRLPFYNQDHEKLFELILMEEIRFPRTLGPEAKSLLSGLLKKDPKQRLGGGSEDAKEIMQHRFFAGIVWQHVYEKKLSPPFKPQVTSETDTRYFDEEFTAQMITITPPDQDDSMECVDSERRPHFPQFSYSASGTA

B1: K8 WT/K18 WT (transfected), P05787;P05783 K8:G434S (protein)
chain 1: MSIRVTQKSYKVSTSGPRAFSSRSYTSGPGSRISSSSFSRVGSSNFRGGLGGGYGGASGMGGITAVTVNQSLLSPLVLEVDPNIQAVRTQEKEQIKTLNNKFASFIDKVRFLEQQNKMLETKWSLLQQQKTARSNMDNMFESYINNLRRQLETLGQEKLKLEAELGNMQGLVEDFKNKYEDEINKRTEMENEFVLIKKDVDEAYMNKVELESRLEGLTDEINFLRQLYEEEIRELQSQISDTSVVLSMDNSRSLDMDSIIAEVKAQYEDIANRSRAEAESMYQIKYEELQSLAGKHGDDLRRTKTEISEMNRNISRLQAEIEGLKGQRASLEAAIADAEQRGELAIKDANAKLSELEAALQRAKQDMARQLREYQELMNVKLALDIEIATYRKLLEGEESRLESGMQNMSIHTKTTSGYAGGLSSAYGGLTSPSLSYSLGSSFGSGAGSSSFSRTSSSRAVVVKKIETRDGKLVSESSDVLPK
chain 2: MSFTTRSTFSTNYRSLGSVQAPSYGARPVSSAASVYAGAGGSGSRISVSRSTSFRGGMGSGGLATGIAGGLAGMGGIQNEKETMQSLNDRLASYLDRVRSLETENRRLESKIREHLEKKGPQVRDWSHYFKIIEDLRAQIFANTVDNARIVLQIDNARLAADDFRVKYETELAMRQSVENDIHGLRKVIDDTNITRLQLETEIEALKEELLFMKKNHEEEVKGLQAQIASSGLTVEVDAPKSQDLAKIMADIRAQYDELARKNREELDKYWSQQIEESTTVVTTQSAEVGAAETTLTELRRTVQSLEIDLDSMRNLKASLENSLREVEARYALQMEQLNGILLHLESELAQTRAEGQRQAQEYEALLNIKVKLEAEIATYRRLLEDGEDFNLGDALDSSNSMQTIQKTTTRRIVDGKVVSETNDTKVLRH
With B1, the ratio to parent (K18 WT and the K8 mutant) came out at 1.2.

B2: K8 WT/K18 WT (transfected), P05787;P05783 K18:D238E; K18:D396E (protein)
chain 1: B1 chain 1 with S434G
chain 2: B1 chain 2 with D238E, D397E
With B2, the ratio to parent (K8 WT and the K18 mutant) was determined as 1.2.

B3: K8 WT/K18 WT (transfected), P05787;P05783 K8:G62C (protein)
chain 1: B1 chain 1 with G62C, S434G
chain 2: B1 chain 2
For B3, under “K18 WT and the K8 mutant”, the ratio to parent is 1.7.

B4: K8 WT/K18 WT (transfected), P05787;P05783 K8:R302C (protein)
chain 1: B1 chain 1 with R302C, S434G
chain 2: B1 chain 2
B4: where the note is “K18 WT and the K8 mutant”, the ratio to parent was 1.8.
